# Measured values as given in the supplement of paper PMC10065799, “High-throughput profiling of sequence recognition by tyrosine kinases and SH2 domains using bacterial peptide display” (eLife, 2023).
# Columns and labels:
# AncSZ = experiment: phosphorylation enrichment, bacterial display (enrichment ratio); higher = better substrate or ligand; peptides without Tyr show the background
# EPHB1 = EPHB1 (UniProt P54762); experiment: as above
# EPHB2 = EPHB2 (UniProt P29323); experiment: as above
# FGFR1 = FGFR1 (UniProt P11362); experiment: as above
# FGFR3 = FGFR3 (UniProt P22607); experiment: as above
# Chain of FGFR3 (P22607 whole entry, looked up): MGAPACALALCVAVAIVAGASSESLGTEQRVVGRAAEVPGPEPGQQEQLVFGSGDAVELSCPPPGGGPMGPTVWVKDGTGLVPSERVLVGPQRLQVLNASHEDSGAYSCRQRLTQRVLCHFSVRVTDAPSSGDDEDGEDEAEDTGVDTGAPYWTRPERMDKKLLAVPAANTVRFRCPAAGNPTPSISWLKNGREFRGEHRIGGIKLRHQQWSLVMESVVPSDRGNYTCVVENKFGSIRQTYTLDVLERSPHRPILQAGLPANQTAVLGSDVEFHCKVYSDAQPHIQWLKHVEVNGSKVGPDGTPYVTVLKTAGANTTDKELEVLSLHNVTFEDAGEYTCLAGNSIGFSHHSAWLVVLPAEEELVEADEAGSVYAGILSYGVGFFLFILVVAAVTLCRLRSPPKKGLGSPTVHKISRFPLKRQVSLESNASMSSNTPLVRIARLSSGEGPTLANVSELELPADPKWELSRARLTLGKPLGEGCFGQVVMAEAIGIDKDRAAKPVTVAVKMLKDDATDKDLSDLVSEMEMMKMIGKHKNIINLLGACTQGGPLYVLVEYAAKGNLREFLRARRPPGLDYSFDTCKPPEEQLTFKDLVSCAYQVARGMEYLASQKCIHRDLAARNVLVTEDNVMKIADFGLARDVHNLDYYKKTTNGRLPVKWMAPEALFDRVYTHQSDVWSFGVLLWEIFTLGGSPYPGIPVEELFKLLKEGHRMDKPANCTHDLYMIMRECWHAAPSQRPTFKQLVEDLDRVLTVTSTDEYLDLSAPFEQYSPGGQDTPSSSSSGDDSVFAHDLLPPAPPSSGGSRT
# Fer (mouse) = experiment: as above
# Fes = Fes (UniProt P07332); experiment: as above
# Chain of Fes (P07332 whole entry, looked up): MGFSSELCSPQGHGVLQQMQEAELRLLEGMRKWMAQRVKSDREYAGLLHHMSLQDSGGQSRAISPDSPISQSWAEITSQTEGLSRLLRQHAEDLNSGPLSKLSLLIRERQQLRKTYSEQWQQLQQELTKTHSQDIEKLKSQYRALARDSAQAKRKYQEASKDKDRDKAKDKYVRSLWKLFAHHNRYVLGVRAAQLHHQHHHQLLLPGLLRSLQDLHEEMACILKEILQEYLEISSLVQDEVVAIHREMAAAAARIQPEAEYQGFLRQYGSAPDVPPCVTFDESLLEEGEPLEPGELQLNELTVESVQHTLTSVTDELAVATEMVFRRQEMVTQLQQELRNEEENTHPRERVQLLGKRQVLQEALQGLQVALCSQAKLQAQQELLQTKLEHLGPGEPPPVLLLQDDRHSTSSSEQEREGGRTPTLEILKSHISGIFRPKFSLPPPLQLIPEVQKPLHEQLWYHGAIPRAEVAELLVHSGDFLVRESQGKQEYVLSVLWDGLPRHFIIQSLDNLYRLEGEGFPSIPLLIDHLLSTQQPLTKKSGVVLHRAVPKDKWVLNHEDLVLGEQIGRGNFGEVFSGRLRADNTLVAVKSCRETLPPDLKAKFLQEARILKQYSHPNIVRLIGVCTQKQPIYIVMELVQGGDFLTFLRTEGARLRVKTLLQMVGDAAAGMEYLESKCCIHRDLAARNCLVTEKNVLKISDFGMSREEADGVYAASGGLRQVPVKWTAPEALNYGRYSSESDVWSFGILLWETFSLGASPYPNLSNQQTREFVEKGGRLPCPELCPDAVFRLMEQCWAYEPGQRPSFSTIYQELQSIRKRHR
# Fyn = Fyn (UniProt P06241); experiment: as above
# Chain of Fyn (P06241 whole entry, looked up): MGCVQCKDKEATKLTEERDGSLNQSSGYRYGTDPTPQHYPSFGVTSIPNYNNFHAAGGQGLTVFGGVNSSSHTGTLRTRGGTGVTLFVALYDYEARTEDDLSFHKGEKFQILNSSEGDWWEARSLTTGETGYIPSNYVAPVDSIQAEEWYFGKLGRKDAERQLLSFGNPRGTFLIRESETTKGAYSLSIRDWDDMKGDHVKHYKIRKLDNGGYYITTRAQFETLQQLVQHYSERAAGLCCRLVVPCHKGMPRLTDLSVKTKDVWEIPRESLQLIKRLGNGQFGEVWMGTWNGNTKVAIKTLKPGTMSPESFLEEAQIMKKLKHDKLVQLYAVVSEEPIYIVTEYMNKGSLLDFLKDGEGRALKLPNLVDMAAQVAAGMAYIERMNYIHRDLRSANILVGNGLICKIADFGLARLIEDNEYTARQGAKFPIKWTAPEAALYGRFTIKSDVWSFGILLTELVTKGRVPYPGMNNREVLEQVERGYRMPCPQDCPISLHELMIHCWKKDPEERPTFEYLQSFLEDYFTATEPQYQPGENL
# Hck = Hck (UniProt P08631); experiment: as above
# Chain of Hck (P08631 whole entry, looked up): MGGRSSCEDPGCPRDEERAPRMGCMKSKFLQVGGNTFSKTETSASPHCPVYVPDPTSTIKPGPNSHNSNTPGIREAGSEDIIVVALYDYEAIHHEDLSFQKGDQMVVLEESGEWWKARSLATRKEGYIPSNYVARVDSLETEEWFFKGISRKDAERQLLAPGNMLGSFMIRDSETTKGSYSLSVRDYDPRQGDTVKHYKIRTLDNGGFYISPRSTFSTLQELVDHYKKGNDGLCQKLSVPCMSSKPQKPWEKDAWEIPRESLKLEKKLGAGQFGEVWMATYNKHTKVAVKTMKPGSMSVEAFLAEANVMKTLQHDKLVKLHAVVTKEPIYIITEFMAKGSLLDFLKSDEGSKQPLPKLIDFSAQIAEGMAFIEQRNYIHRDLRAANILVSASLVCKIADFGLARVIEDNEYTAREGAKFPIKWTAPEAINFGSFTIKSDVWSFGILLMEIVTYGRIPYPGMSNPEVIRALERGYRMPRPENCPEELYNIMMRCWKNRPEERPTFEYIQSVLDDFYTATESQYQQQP
# Jak2 = Jak2 (UniProt O60674); experiment: as above
# MERTK = MERTK (UniProt Q12866); experiment: as above
# Chain of MERTK (Q12866 whole entry, looked up): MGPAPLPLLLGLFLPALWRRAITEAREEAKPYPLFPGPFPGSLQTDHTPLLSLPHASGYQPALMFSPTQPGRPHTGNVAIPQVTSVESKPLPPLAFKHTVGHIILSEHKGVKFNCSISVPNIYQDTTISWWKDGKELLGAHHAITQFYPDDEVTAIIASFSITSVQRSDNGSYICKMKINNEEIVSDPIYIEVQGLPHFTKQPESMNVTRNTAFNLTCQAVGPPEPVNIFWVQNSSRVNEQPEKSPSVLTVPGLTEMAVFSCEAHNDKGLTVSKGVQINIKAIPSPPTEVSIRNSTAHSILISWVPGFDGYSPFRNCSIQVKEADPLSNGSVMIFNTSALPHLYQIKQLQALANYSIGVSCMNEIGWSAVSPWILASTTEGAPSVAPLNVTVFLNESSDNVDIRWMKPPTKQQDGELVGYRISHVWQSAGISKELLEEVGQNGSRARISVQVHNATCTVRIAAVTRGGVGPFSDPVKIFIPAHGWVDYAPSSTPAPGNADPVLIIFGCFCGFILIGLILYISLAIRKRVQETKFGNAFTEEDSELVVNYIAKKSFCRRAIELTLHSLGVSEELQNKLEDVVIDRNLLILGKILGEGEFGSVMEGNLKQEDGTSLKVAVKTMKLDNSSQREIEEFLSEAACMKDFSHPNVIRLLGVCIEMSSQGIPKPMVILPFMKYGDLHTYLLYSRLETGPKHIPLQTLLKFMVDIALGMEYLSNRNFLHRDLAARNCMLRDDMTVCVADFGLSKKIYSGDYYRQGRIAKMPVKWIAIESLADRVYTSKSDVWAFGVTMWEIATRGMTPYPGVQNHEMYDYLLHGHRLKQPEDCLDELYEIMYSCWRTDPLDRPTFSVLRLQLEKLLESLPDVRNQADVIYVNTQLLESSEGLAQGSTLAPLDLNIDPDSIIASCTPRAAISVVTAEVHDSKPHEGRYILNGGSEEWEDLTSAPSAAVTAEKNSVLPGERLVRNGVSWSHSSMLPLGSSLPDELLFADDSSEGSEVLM
# c-Abl (mouse) = experiment: as above
# c-Src = experiment: as above
# Grb2 SH2 = Grb2 SH2 (UniProt P62993); experiment: SH2 binding enrichment of the phosphorylated peptide, bacterial display (enrichment ratio); higher = better substrate or ligand; peptides without Tyr show the background
# Chain of Grb2 SH2 (P62993 whole entry, looked up): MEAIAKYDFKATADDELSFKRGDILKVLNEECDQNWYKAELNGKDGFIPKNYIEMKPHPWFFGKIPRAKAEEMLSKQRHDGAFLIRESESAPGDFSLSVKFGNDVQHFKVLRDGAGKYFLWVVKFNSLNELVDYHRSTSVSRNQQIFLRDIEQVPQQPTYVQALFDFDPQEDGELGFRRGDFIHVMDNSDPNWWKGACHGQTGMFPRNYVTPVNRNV
# SHP2-C SH2 = experiment: as above
# c-Src SH2 = experiment: as above
# 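For SH2 binding enrichment of the phosphorylated peptide, bacterial display in this document: peptide library displayed on the E. coli surface as eCPX fusions, selected cells deep-sequenced, score is each peptide's frequency after selection divided by its frequency in the input.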
# 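For phosphorylation enrichment, bacterial display in this document: 11-residue human phosphosite peptides and single-mutation variants displayed on the E. coli surface, counted by deep sequencing, each peptide's frequency after selection divided by its frequency in the unselected input library; frequency after pTyr selection over input frequency; kinase dosed for 20-30% of maximal phosphorylation in three min.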
# Chain of EPHB2 (P29323 whole entry, looked up): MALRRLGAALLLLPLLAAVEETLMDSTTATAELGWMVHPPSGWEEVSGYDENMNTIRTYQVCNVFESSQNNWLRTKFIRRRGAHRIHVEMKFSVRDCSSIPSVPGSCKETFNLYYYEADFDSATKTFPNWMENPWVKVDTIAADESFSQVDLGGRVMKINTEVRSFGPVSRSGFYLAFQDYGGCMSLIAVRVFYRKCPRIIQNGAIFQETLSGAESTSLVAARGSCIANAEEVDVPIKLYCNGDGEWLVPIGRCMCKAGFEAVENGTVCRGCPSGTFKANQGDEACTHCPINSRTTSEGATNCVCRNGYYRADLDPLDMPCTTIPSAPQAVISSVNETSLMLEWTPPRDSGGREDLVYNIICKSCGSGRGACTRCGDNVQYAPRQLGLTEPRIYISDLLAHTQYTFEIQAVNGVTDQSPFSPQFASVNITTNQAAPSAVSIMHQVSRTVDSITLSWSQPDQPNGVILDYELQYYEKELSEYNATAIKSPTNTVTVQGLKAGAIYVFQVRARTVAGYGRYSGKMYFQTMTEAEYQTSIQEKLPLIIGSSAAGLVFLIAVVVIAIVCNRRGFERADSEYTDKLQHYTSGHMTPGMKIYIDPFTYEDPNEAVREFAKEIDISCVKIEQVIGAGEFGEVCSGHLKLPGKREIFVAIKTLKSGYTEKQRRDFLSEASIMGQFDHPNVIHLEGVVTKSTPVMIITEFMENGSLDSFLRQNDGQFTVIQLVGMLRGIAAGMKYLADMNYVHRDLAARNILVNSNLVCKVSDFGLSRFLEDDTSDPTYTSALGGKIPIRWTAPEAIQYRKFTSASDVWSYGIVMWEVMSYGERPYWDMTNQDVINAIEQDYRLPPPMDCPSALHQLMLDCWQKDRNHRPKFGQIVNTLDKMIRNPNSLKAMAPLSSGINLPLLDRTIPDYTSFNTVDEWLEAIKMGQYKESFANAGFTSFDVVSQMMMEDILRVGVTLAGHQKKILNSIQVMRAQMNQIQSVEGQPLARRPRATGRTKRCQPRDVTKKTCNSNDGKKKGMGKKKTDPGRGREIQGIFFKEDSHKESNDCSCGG
Sequence,phosphorylation enrichment (AncSZ),phosphorylation enrichment (EPHB1),phosphorylation enrichment (EPHB2),phosphorylation enrichment (FGFR1),phosphorylation enrichment (FGFR3),phosphorylation enrichment (Fer (mouse)),phosphorylation enrichment (Fes),phosphorylation enrichment (Fyn),phosphorylation enrichment (Hck),phosphorylation enrichment (Jak2),phosphorylation enrichment (MERTK),phosphorylation enrichment (c-Abl (mouse)),phosphorylation enrichment (c-Src),SH2 binding enrichment (Grb2 SH2),SH2 binding enrichment (SHP2-C SH2),SH2 binding enrichment (c-Src SH2)
SVVVPYEPHEV [TP53_Y220_P223H],1.05,0.716,0.615,0.542,0.835,1.38,1.25,0.54,0.577,1.18,0.493,0.803,0.513,0.726,0.781,0.569
EFQLPYFNTVP [BMPR1A_Y457_M460T_YF],0.879,0.523,0.549,0.682,0.541,0.423,0.935,0.454,0.523,1.08,0.454,0.615,1.26,1.27,0.741,0.667
KGPGEYVNIEF [IRS1_Y896_S892G],0.958,0.708,0.639,1.43,1.14,0.475,0.79,0.58,0.498,0.691,0.442,0.493,0.484,4.8,1.22,5.64
FAELVYTSFWH [ASS1_Y322_G324S],2.31,2.99,3.44,5.31,4.28,8.86,1.89,8.65,7.37,2.11,7.38,14,6.82,0.907,0.612,0.624
VMTSKYRGGGG [HBA1_Y141_L137M],0.433,0.332,0.427,0.444,0.467,0.378,0.491,0.378,0.39,0.424,0.36,0.384,0.363,0.834,0.792,0.691
SHNKFYMLVAR [MFSD8_Y134_YF],1.15,0.673,0.607,0.532,0.875,0.607,1.15,0.452,0.475,1.1,0.479,0.705,0.36,1.4,1.72,1.04
RILENYGADID [DNAH5_Y596_L591R],1.17,0.717,0.719,0.765,0.695,0.403,1.06,0.726,0.494,1.14,0.51,0.951,0.56,0.525,0.474,0.802
EFISECCGEII [EZH2_Y641_Y641C],1.27,0.672,0.695,0.723,0.724,0.508,1.18,0.498,0.55,1.07,0.503,1.24,0.472,0.954,0.739,0.501
SLQSEYVHYGG [CDC14A_Y591],0.919,0.854,0.973,0.811,0.95,0.441,0.774,0.69,0.927,0.655,0.558,0.6,0.848,0.587,0.69,0.533
GSIQQYIYKQE [PRG4_Y1271],0.651,0.425,0.567,0.507,0.539,0.398,0.644,0.522,0.439,0.811,0.433,0.486,0.752,0.919,0.837,0.294
KDFTIYNPNLL [VANGL1_Y290],0.722,0.419,0.42,0.434,0.518,0.599,0.835,0.787,1.58,0.815,0.478,0.71,1.2,0.703,0.537,0.511
RMSQRYRDVLQ [CYP1A2_Y72_G73R],1.11,0.422,0.719,0.484,0.549,0.396,1.08,0.593,0.66,0.905,0.522,0.769,0.745,0.719,0.548,0.495
KKCTTYIDCDL [ASPA_Y64_R63T],0.975,0.48,0.474,0.571,0.665,0.713,1.14,0.42,0.491,0.81,0.391,0.601,0.415,0.883,0.826,0.703
LVMFIYAIFWM [SCN1A_Y1684_G1688W],1.07,0.525,0.491,0.566,0.626,0.531,1.05,0.563,0.558,0.963,0.527,0.739,0.5,1.3,1.76,1.21
KPLMPYMRFSR [SMARCE1_Y73_YF],1.3,0.385,0.464,0.466,0.547,0.352,0.872,0.591,0.493,0.843,0.479,0.99,0.508,0.838,0.831,0.412
NIRKKYYRAIL [CHD7_Y1217_Q1214R],0.569,0.455,0.311,0.501,0.341,0.388,0.547,0.443,0.395,0.494,0.507,0.462,0.442,0.599,0.426,0.368
GVRTIYTIDGS [DCLK2_Y124],0.803,0.563,0.507,0.581,0.506,0.52,0.846,1.38,0.697,0.69,0.553,0.5,1.6,0.968,0.941,0.521
VMVCAYLLHRG [PTEN_Y138_I135V],1.13,0.614,0.538,0.502,0.78,0.558,1.3,0.478,0.584,1.23,0.481,1.18,0.558,0.91,0.723,0.724
EVTLTYATGTK [NFKB1_Y485],0.805,0.526,0.526,0.404,0.643,0.425,1.11,0.496,0.514,0.75,0.371,0.774,0.409,0.701,0.528,0.418
KANEYYPVVLI [ADAMTS18_Y765],1.97,3.64,3.11,11.2,9.02,2.12,0.813,0.572,0.693,2.79,0.541,1.6,0.655,0.683,0.625,0.404
HNLDFYKKTTN [FGFR3_Y648_YF],3.51,1.76,2.13,1.28,1.68,2.46,3.91,0.916,1.15,5.47,1.95,3.49,2.23,1.02,0.602,0.5
DPTNTYARPAE [SGMS2_Y24],1.02,0.466,0.581,0.598,0.481,0.33,0.785,0.457,0.506,0.639,0.516,0.696,0.372,0.729,0.698,2
FRSSLYLLMET [MYO5C_Y633],1.24,0.804,0.591,0.724,1.16,0.687,1.37,0.473,0.576,1.29,1.46,0.896,0.521,1.3,1.16,0.855
HLDRSYSFSFS [PEAR1_Y890_R885H_YF],1.75,0.638,0.658,0.841,0.897,0.999,2.08,0.561,0.726,1.78,0.964,1.17,1.12,0.808,0.448,0.563
SEPDLYCDPRG [PKP1_Y160],2.48,4.34,3.01,1.94,1.45,2.37,1.15,1.95,5.26,1.23,1.46,1.31,2.17,1.03,0.93,0.563
LIDSSYLTPTA [GREB1L_Y1063_R1066P],0.919,0.569,0.498,0.596,0.825,0.423,1.15,0.409,0.684,0.8,0.511,0.871,0.421,1.2,0.595,0.717
MCVKSYTIHFS [F5_Y2153_Y2149C_YF],1.47,0.718,0.622,0.525,1.01,0.552,1.41,0.489,0.546,1.05,0.448,1.02,0.565,0.841,0.617,0.485
DSFATYFRRVL [H2BW1_Y84],1.35,0.607,0.677,0.496,0.703,0.426,1.2,0.472,0.82,1,0.448,0.798,0.532,0.797,0.584,0.373
RNNIEYVRDIG [MUSK_Y577],0.676,0.437,0.404,0.413,0.58,0.426,0.693,0.369,0.395,0.436,0.3,0.602,0.416,1.21,0.725,0.634
